The DeepSol protein solubility set

experiment: soluble on expression in E. coli; label from the status in PepcDB or PDB records

Row | Sequence | soluble on expression in E. coli
1 | MGSDKIHHHHHHMRGTIMDDLNDLYYFVKVVEHGGFTQAGRALGVPKSTLSRRIAALEAQYDVRLLQRTTRHFTVTETGREFYDRCLGVLVEAEAAREVIERKHAEPQGIVSLSCPTALLEYRVSGLVARFMAIHPKVQVHLEATNRRVDLLSEGIDLALRVRFPPLEDSGLVMRVLGDSPQRLVAAPHLLGGRDLPTSPDELAGVPSVDWGPPRHHLWQLVGPQGVEAQLRHHPRFITDDMHALRDAALHGVGIAQLPCMVVEDDLRDGTLVDVLPGWVPKGGVIHAVFPSRRGLLPRVRLLIDFLAAHIQKD | not soluble
2 | MTGERIEKVKINDEFAKSHFLTTQWRETKRQRHYKMPVTEQGLRERIESAIPQVYHIIVTDLSYGCGQSFDIVVVSDFFQGKSKLMRSRAVNKAVKEELQEIHAFSCKCYTEEEWSKIVV | soluble
3 | MTVEHSEAPMTETDVVIIGAGHNGLTCAAYLAMAGLRVRVVERRKVVGGAAVTEEFHPGFRNSVAAYTVSLLNPQVIRDLGLAEQGLRIVERRAQNFLPAPDGSYLLTGEGRTKASVARLSAHDADALDGFSRELEDIADVLRQFVLRAPPNLLDGFGTNAIREAVNALQSANILRGLTLEQSRSLLDLFTRSAGEMLDERFEHDLVKALFGFDAIVGNYASPYAAGSAYVMLHHAFGEVNGKKGVWGHAIGGMGAITQAMARAAQGRGVAIDTDAGVREVIVERDRAVGVVLENGATIRAKYVAANVNPKLLYTRLIAADALPKDFLARIRHWKNGSGTFRMNVALDRLPSFTALPDDGDHLTSGIILAPSLGYMDRAFLDARAHGWSREPVVEMLIPSTLDDTLAPEGKHVASLFCQHVAPELPDSRSWDDHRDEVADLMIATVDSYAPGFASSVLGRQILSPLDLERQFGLLGGDIFHGALTLNQLFSARPMLGHADYRGPLKGLYHCGSGAHPGGGVTGAPGHNAAQAILRDHRSLFGSRGLEHHHHHH | not soluble
4 | GPGSMIGAPWPPEAVFGNTVDRVASPAPVPERKISIADQLHLPLSRFVEKMSWGEKRRVQILHGMLYPATVYLLDECSTDIDVAERRTVLELVRQECEAKDGCCVYATHIFDGIEGWATHLLLMEGGRVVDFKAVEKLTLPLEDYALQFMSKRAHAARGVDGVAAASLSHGSSAAISTTS | soluble
5 | GQDRSPIETQNVETVLRLFDEGWGAQDGWRDVWRETMTPGFRSIFHSNQAVEGIEQAIAFNAVLFEGFPRLEVVVENVTVEGDNVVVQARLTGAQDGPFLGVPPSGQMVDVPDVTLFTLADGQVIEMRYFTDLLAVMTAISAPPEN | soluble
6 | MAHHHHHHMMRSPFERLYHLNNRRDRDERRNKVFQLSLLERIRDRIVSGSLKEDIARKEERLRKQEEMLTSPNGVFVRLYQNSSPRRSSNAAAEGSDCKSVGEGNRDGRASVNTTGVSSQRASTARSRMSAAESQELCNRLYETAAIVKQKKEAMRKQSVEERQRQQAEELLIARLAGQIQLERSRTRASSKRRPKTPAQLEDEARAALEKLRKEDPEGYEKKVLRGRLLSPAERVMQAERLWKHGYISKAKLEAQKKVLELKKCTFQPTINEFSGSAGVAGSGETRGKGGGGTNDDKHLSAGTDRAQRHRKANRFEELYRKGIQAKVRGETLREERDREARLRILRSRMVSDHHFRRRVELDPLLAERFMKSLVV | not soluble
7 | MELKHSISDYTEAEFLEFVKKIARAEGATECDDNKLVREFERLTEHPDGSDLIYYPRDDREDSPEGIVKEIKEWRAANGKSGFKQG | soluble
8 | MKEKTPFKNEKEFHDMVKKTKKGTFSGWYIVNPENNSVEFSGNFNRQFKLNKPVIPVNTEYVTRKEFNEYKDSNDQRLIKIETTLAAQGEQIRIQGEQIKELQIEQKAQSETLKLILQTLQKMSDRLDKMDVRLDKLESK | soluble
9 | MAKKGPKRHLKRLAAPVRWELPRKIHKFTVRPLPGAHPMSESLPLLLIVRDILKYADNAREAKKIIKMGKVLVDGRVRKEEKLPVGLMDVVSLPDANENYRVLFDRKGRIKLKPTENPDVKLCKIKNKTVIKGGHIQLNLHDGRNIVIKVSDPTKAEEDVYKTGDTLLISIPEQEIKAHIPFEVGKLAYITGGKHVGDFAKIVEIERRGIYPDIVTLENMDGEKFKTVKDYVFVVGDEEPIIKLLEHHHHHH | soluble
10 | MYNDVLFPGEDINKPISIAAANRFVNRIRGGMDLGYWRTHDFRRTLVTRLSEMNVEPHVTERMLGHELGGIMSVYNKHDWIEAQRKAYELHADKLFWHIRSISD | not soluble
11 | MKLERILPFSKTLIKEHIKQDSIVIDATCGNGNDTLFLAQQVSNGHVFGFDIQDTAIQSTFEKVKAFNNVTLIQDGHENIKKHIDIQFKGQIDAAIFNLGYLPKGDKSIVTRPETTIKAINAIFDYLSVEGIIVLVIYHGHAEGQVERDALLDFLEHFDQEKAHILKYQFMNQVNHAPFICAIEKRLEHHHHHH | not soluble
12 | GSAMAPTNDQLTDLQEAHFVVFESEENSESVMDGFVEHPFYTATLNGQKYVVMKTKDDSYWKDLIVEGKRVTTVSKDPKNNSRTLIFPYIPDKAVYNAIVKVVVANIGYEGQYHVRIINQDINTKDDDTSQ | soluble
13 | MGSDKIHHHHHHMREAMYWKPLGDGRVRCELCPLRCIIDEGKRGSCKIRINKGGKLYTLNYGKVSSIALDPIEKKPLFHFWPGSCALSIGTVGCNMHCKHCQNWEISQADESFPYLQDATPEAIVSLAKHYECESIAYTYNEPTIWYEFVLDTAKLARKEGLNNILVTNGYINEEPFRELAPYIDAMNIDIKAFDDKFYMKIASVPSGEPSRRIAEIAKKEFKIHVELTYLIIPTLNDKEEEIREFARWVVENLGDDTPVHFSRFFPHYKLLNLPPTPIETLEKAYKIAKEEGLKFVYLGNVPGHPGENTYCPSCGKLLIERWGFDIIRYDIVDGKCKYCGEKIPIVGKYQKKKYRGMWW | not soluble
14 | QIVLTQSPAIMSASLGDRVTMTCTASSSVSSSYLHWYQQKPGSSPKLWIYSTSNLASGVPARFSGSGSGTSYSLTISSMEAEDAATYYCHQFHRSLTFGSGTKLE | soluble
15 | MSLRVLGIETSCDETGIAIYDDEKGLLANQLYSQVKLHADYGGVVPELASRDHVRKTVPLIQAALKESGLTAKDIDAVAYTAGPGLVGALLVGATVGRSLAFAWDVPAIPVHHMEGHLLAPMLEDNPPEFPFVALLVCGGHTQLISVTGIGQYELLGESIDDAAGEAFDKTAKLLGLDYPGGPLLSKMAAQGTAGRFVFPRPMTDRPGLDFSFSGLKTFAANTIRDNGTDDQTRADIARAFEDAVVDTLMIKCKRALDQTGFKRLVMAGGVSANRTLRAKLAEMMKKRRGEVFYARPEFCTDNGAMIAYAGMVRFKAGATADLGVSVRPRWPLAELPAEGHHHHHH | soluble
16 | MFQQQNDWETRENAFAAFAMGPLTDFWRQREEAEFIGVGNIPVRFVRFRNDSNDRTIVICPGRIESYVKYAELAYDLFHLGFDIFIIDHRGQGRSGRMLSDPHRGHVDHFNDYVEDLAAFWQQEIEPGPWRKRYILAHSMGGAIATLFLQRHRVRCDAIALTAPMFGIVIRLPSFMVRHILDWAEGHQRIREDYAIGTGQWRALPFGMNALTHSRQRYQRNLRFYADEPQLRVGGPTWHWVREGILAGEQVLAGASDDTTPTLLIQAEEERVVDNRTHDRFCEIRAAAGYPCEGGKPLVIKGAYHEILFEKDAMRSVALNAIVEFFNKPNLSSGNRFA | not soluble
17 | MMCTAKKCGIRFQPPAIILIYESEIKGKIRQRIMPVRNFSKFSDCTRAAEQLKNNPRHKSYLEQVSLRQLEKLFSFLRGYLSGQSLAETMEQIQRETTIDPEEDLNKLDDKELAKRKSIMDELFEKNQKKKDDPNFVYDIEVEFPQDDQLQSCGWDTESADEF | soluble
18 | MKSVLITFDQAYYERIMALLDRLNCRGFTYLEKVQGRGSKTGDPHFGSHAWPSMCSAILTVVDDNKVDPLLDTLHKMDLQTEQLGLRAFVWNIERTI | not soluble
19 | SMARENGESSSSWKKQAEDIKKIFEFKETLGTGAFSEVVLAEEKATGKLFAVKCIPKKALKGKESSIENEIAVLRKIKHENIVALEDIYESPNHLYLVMQLVSGGELFDRIVEKGFYTEKDASTLIRQVLDAVYYLHRMGIVHRDLKPENLLYYSQDEESKIMISDFGLSKMEGKGDVMSTACGTPGYVAPEVLAQKPYSKAVDCWSIGVIAYILLCGYPPFYDENDSKLFEQILKAEYEFDSPYWDDISDSAKDFIRNLMEKDPNKRYTCEQAARHPWIAGDTALNKNIHESVSAQIRKNFAKSKWRQAFNATAVVRHMRKLHLGSSLDSSNA | soluble
20 | MTEPIKEIAAKRSVEAVYTGGTVRWSANGQKLFSTCTNVVKVIDLADNTASYTIGDPEDELRITCTAVDKNRNRLLVAYNNQIIREYSIPLDPSTTKPELARTWKTIHTAPILVMEFNEEGHLLATGSADHIVKVWNLTEQQCTHTLKGPSVVSAILFGKHEKLVVGYIEGQLNLYNIMRGAPKKLVNTWKSHNSHITALLQVPDSRVVVALSRDQTMSIHETETQETLRVLPLYESIEGGAIGHNGNLFTVGEEGVVKEFVIETAKLVRKKRIASSNLDHLAYDVVSNRFLAISAEQNLIILDFENLKIARQIVGFHDEIYSCCLLGKDESHMAVASNTSEIRLYNTKTLDCQLIRGHTESVLSVVSPTWDTSLLASCSKDNSIIFWRLVTSPENDSCSTLVPVAAATGHANTVTALAISNTGRAPFLASVSTDCTIKLWGLGVSTKLKEVKIDAEKDFVEQLPKLTCSSTMVAHGKDVNCVDISESDALIATGGMDKLVKLWQVDTHKMQLGIAGTLSGHRRGVGDVKFAKNSHKLASCSGDMTIKIWNISEKSCLQTISGHSCAVFRVIFARNDSQLISADSAGIIKIWTIKTADCECSIDAHTDKIWSLSKNHNESEFVTAGTDGRIVVWKDVTEEKQKAEDNKRREAIEQDQTLTNLLSQKRYSEALVFALTLAKPFCAFKVINALMAEETPEELGSAIRRLDTRQIEILLQFTVKWNTNSRTSSVAQRVLYEIVHIVDPEELVSMPGAYGYIESFLPYTQRHMDRLDRAKQDVSLFDFVWRQMRSSV | not soluble
21 | MGSDKIHHHHHHMSPLFTNSEIISRVIKEHFNKNLDHYDGVKFSFMVLNKKNPSQMIIISSYPDEWVNLYKENKYQHIDPVVLASFNKISPFSWEKSLVINTRLQLAKIFDLSKKYDIINGYTFVLHDHGDNLAMLSIIVDNSYPDDVETFIEERKDIFQMLLIEAYEKIISLCKEMIGNKKQLNNKEIFSQRENEILYWASMGKTYLEVAIILGIKTSTVKFHIGNVVKKLGVLNAKHAIRLGVELQLIKPVQ | not soluble
22 | MGHHHHHHSHMPSLSTLRMRRCPSSLWIRFGYDPRKNPDAKIYQVLDFRIRCGMKHGYAPSDLPVKAKRSTYNYSLPITVKKTSSQLVTMHDLKQGLGPSGTSGARKPASSKYKLKVSLQTLRDSVYIFREGALPPYRQMFYQLCDLNVEELQKIIHRNDGAENSCTERDGWCLPKTSDELRDTMSLMIRQTIRSKRPALFSSSAKADGGKEQLTYESGEDEEDEEEEEEEEEDFKPSDGSENEMETEILDYV | not soluble
23 | MPLVVNVLSTPLNAQPTRTAGFTLPEMMLALSFGSLIALSTAQVLPKLSQQISVLQQHYRLELVMNQAMGAMEKDLRRAGFCHGKCQGEAITIEHYLGETAHSCLIVAYDLNCNGRWEGAKHQESEYFGYRLRNKALESQRGELNCHGRGWEKLFDPRDVTVTHFSVTPLSGQLFKLRLVGHKTGNPAIHHQVTYLIRGNNV | not soluble
24 | MNIQCKRVYDPAEQSDGYRILVDRLWPRGIKKTDLALDEWDKEITPSTELRKAFHGEVVDYATFREQYLAELAQHEQEGKRLADIAKKQPLTLLYSAKNTTQNHALVLADWLRSL | soluble
